Target: Native eIF4E of High Five (Trichoplusia ni) insect cells (Trichoplusia ni)
Assay: cell-based or functional assay

B1: his-tagged PVY VPg protein (protein, not shown: small tags and cut ends)
chain: GKNKSKRIQALKFRHARDKRAGFEIDNNDDTIEEFFGSAYRKKGKGKGTTVGMGKSSRRFINMYGFDPTEYSFIQFVDPLTGAQIEENVYADIRDIQERFSEVRKKMVENDDIEMQALGSNTTIHAYFRKDWSDKALKIDLMPHNPLKVCDKTNGIAKFPERELELRQTGPAVEVDVKDIPAQEVEHE
Which results are given for B1?
eIF4E in cytoplasm (%), 12 h p.i., cell fractionation, Western blot and densitometry: 53.5%; eIF4E in cytoplasm (%), 24 h p.i., cell fractionation, Western blot and densitometry: 81.3%; eIF4E in cytoplasm (%), 36 h p.i., cell fractionation, Western blot and densitometry: 83.3%; eIF4E in cytoplasm (%), 48 h p.i., cell fractionation, Western blot and densitometry: 74.1%; eIF4E in nucleus (%), 12 h p.i., cell fractionation, Western blot and densitometry: 46.5%; eIF4E in nucleus (%), 24 h p.i., cell fractionation, Western blot and densitometry: 18.7%; eIF4E in nucleus (%), 36 h p.i., cell fractionation, Western blot and densitometry: 16.7%; eIF4E in nucleus (%), 48 h p.i., cell fractionation, Western blot and densitometry: 25.9%
